The target of one assay is IGF1 receptor. Description: competition binding assay with 125I-labeled IGF1 on the IGF1 receptor; reference IGF1.
A further assay has as its target insulin receptor. The assay can be described thus: competition binding assay with 125I-labeled insulin on the insulin receptor; reference human insulin.

Ends that are not written are not given here.

B1: PIRA S661 (…-amide) (peptide)
peptide: GSLDESFYDWFERQLGGGSGGSSLEEEWAQIQCEVWGRGCPSY-NH2
modifications: cysteine pairing not given here
On to B1, for which the fold lower affinity than IGF1 with IGF1 receptor was 200000 fold. For the same molecule, in the assay with insulin receptor, the affinity relative to human insulin was determined as 48%.
